How the values were obtained:
[1] = target: T1, HCV NS3 serine protease (Hepatitis C virus (isolate BK), UniProt P26663); experiment: Activation of HCV NS3 serine protease in an in vitro translation assay (rabbit reticulocyte extracts, NS5AB precursor substrate); format: biochemical
T1 construct: substrate NS5AB precursor
Excerpt: The plasmids described in FIG. 1 can also be used for in vitro synthesis of mRNA coding for the respective HCV proteins using the purified RNA polymerase enzyme of the phage T7 (Promega).
Generally the plasmids derived from pCite-1^R were linearized using suitable restriction enzymes and transcribed using the protocols supplied by the manufacturer (Promega). These synthetic mRNA, could later be used to synthesize the corresponding proteins in extracts of rabbit reticulocytes in the presence of canine pancreas microsomal membranes. The reticulocyte extracts, the canine pancreas microsomal membranes, like all the other material required, were purchased from Promega, which also supplied the instructions for the in vitro protein syntheses process described above.
Programming the in vitro translation mixture with mRNA transcribed from pCite(NS3) it is possible to observe synthesis of a protein with the expected molecular weight (68 kDa) containing the entire NS3 serine protease domain. The mRNA transcribed from pCite(NS5AB) guides the synthesis of a precursor of 115 kDa which contains NS5A and NS5B and is thus a substrate for the proteolytic activity associated with NS3.
This peptide was added to an in vitro translation mixture simultaneously programmed with the mRNAs transcribed from the plasmids pCite(NS3) and pCite(NS5AB).

[2] = target: T2, recombinant NS3 serine protease (Hepatitis C virus (isolate BK), UniProt P26663); experiment: Assay of recombinant HCV NS3 serine protease purified from E. coli on a peptide substrate (NS4A/4B junction), HPLC; format: biochemical
T2 construct: NS4A/4B peptide substrate
Method: The recombinant NS3 serine protease produced according to the above procedure in E. coli could be assayed for activity by cleaving a substrate that provides detectable cleavage products. The signal is preferably detectable by colorimetric or fluorometric means. Methods such as HPLC and the like are also suitable.
For example, we used, as a substrate, synthetic peptides corresponding to the NS4A/4B junction of the HCV polyprotein.
The activity assay is performed by incubating 5-1000 μM substrate and 0.05-1 μM protease in buffer containing 25 mM Tris/HCl pH 7.5, 3 mM dithiothreitol, 0.5% (w/v) CHAPS and 10% (v/v) glycerol for 1-3 hours at 22° C. The reaction is stopped by addition of trifluoracetic acid to yield a final concentration of 0.1% (w/v).
The reaction products are then separated by HPLC on a C18 reverse phase column and quantitated according to their absorbance of the far UV light.

[3] = target: T1, HCV NS3 serine protease; experiment: Activation of HCV NS3 serine protease in cultivated HeLa cells (vTF7-3 infection, plasmid cotransfection, immunoprecipitation); format: cell-based; details: NS4A expressed transiently in HeLa cells together with the NS3 serine protease domain; no cleavage without NS4A

T1 sequence (P26663 1007-1615): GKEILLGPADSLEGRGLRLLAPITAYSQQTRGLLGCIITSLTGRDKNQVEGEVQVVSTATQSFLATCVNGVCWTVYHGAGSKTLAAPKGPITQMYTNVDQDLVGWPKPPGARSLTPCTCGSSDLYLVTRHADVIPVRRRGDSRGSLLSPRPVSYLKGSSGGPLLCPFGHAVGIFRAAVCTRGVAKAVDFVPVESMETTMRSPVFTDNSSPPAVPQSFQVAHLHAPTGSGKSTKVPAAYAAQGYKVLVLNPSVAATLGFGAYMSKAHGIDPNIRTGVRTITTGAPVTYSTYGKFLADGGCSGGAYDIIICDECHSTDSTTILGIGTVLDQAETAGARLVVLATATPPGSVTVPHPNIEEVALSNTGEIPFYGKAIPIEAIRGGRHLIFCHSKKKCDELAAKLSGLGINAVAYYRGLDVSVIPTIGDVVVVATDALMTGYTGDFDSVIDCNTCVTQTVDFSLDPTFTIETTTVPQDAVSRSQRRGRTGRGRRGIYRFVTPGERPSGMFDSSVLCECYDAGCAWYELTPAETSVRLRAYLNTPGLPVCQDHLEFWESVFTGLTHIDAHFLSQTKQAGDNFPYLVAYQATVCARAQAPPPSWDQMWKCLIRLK
T2 sequence (P26663 1027-1206): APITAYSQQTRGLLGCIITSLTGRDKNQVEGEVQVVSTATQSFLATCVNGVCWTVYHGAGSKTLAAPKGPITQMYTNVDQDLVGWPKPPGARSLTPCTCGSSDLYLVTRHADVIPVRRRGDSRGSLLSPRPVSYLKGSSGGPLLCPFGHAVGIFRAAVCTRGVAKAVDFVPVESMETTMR

SEQ ID NO:3: Synthetic peptide derived from the C-terminal portion of SEQ ID NO:2 (NS4A); carboxy terminal cysteine replaced with alpha-aminobutyric acid (Abu)
proteolytic activity of the NS3 serine protease domain on NS5AB substrate ([1]; peptide added to in vitro translation mixture programmed with mRNAs from pCite(NS3) and pCite(NS5AB)): proteolytic cleavage of the substrate in the two products containing the proteins NS5A and NS5B | stimulation of the proteolytic activity of the recombinant NS3 serine protease ([2]; increasing amounts of peptide, NS4A/4B junction peptide substrate, pH 7.5, 22° C., HPLC): up to 20 fold | peptide to protease ratio at which maximal activity is reached ([2]; recombinant NS3 serine protease and synthetic peptide): equimolar amounts

NS4A: HCV non-structural hydrophobic protein of 6 kDa acting as cofactor of the NS3 serine protease
activation of the proteolytic activity associated with NS3 (cleavage of the precursor encoded by pCite(NS4B5A)) [3]: can thus activate the proteolytic activity associated with NS3 | serine protease activity of NS3 on a substrate containing NS5A and NS5B ([1]; in vitro translation, protein sequence containing NS4A present in addition to the NS3 protease domain, no activity with NS3 domain alone): serine protease activity of NS3 becomes evident
